Data on one protein can be found in patent US20210268105A1 (HEXAMER THERAPEUTICS, published 2021).

The data set concerns the molecule itself. Briefly: Blue native PAGE of the peptide dissolved in 1xPBS; self-association into a hexamer. The protocol:
The peptide (SEQ ID NO: 15) was synthesized by SPPS and lyophilized for storage. The peptide was dissolved in 1×PBS and then loaded onto a blue native PAGE gel and size fractionated by electrophoresis through a 4-16% acrylamide gradient gel for 90 min at 150 V (constant). The gel was fixed in methanol:acetic acid:water and then rinsed in the same solution to destain. Lane 1 is BSA as a reference protein, and Lane 2 is the self-assembled hexamer. MW standards (which are not shown) are on the right. BSA is 66 kDa and the hexamer has an expected size of 20.7 kDa.
Experiments were performed to confirm that a hexamer forms following hydration of the monomer, elucidate the solubility of epitope coupled hexamers, determine the maximum density of epitope coupling, and confirm that a hexameric structure is maintained following coupling of the epitope. A representative peptide, SEQ ID NO: 15, was synthesized using the protocols previously described. A methionine and aspartic acid residue were placed on the N-terminus, and the methionine residue was protected by acetylation to form Acetyl-MD-(SEQ ID NO: 15). Following SPPS, the peptide was lyophilized for storage. To show self-assembly, the peptide was dissolved in 1×PBS buffer, incubated at room temperature for 5 min, and loaded onto a Blue NativePAGE Novex Bis-Tris Gel using the system purchased from Life Technologies. […]

Where no end group is shown, it is not given here.

B1: Acetyl-MD-(SEQ ID NO: 15) (peptide)
peptide: Ac-MDLRSIGKDLRSIGRDLRSIGKDLRSIGRD
notes: After it is dissolved in 1xPBS, six copies self-assemble into a hexamer (expected 20.7 kDa); also called self-assembled peptide
Consider B1, for which the binding result was “binds”.
